In ChEMBL document CHEMBL2074302, “ATP-dependent transport for glucuronides in canalicular plasma membrane vesicles” (Biochem Biophys Res Commun, 1991):

Substrate: O=C(O)[C@H]1O[C@@H](Oc2ccc([N+](=O)[O-])cc2)[C@H](O)[C@@H](O)[C@@H]1O
Test: TP_TRANSPORTER: uptake in bile canalicular membrane vesicles from Wistar rat
Format: functional, cell membranes, Bile canalicular membrane vesicle

B1: ATP-binding cassette sub-family C member 2 (Rattus norvegicus) (protein)
chain: MDKFCNSTFWDLSLLESPEADLPLCFEQTVLVWIPLGFLWLLAPWQLYSVYRSRTKRSSITKFYLAKQVFVVFLLILAAIDLSLALTEDTGQATVPPVRYTNPILYLCTWLLVLAVQHSRQWCVRKNSWFLSLFWILSVLCGVFQFQTLIRALLKDSKSNMAYSYLFFVSYGFQIVLLILTAFSGPSDSTQTPSVTASFLSSITFSWYDRTVLKGYKHPLTLEDVWDIDEGFKTRSVTSKFEAAMTKDLQKARQAFQRRLQKSQRKPEATLHGLNKKQSQSQDVLVLEEAKKKSEKTTKDYPKSWLIKSLFKTFHVVILKSFILKLIHDLLVFLNPQLLKLLIGFVKSSNSYVWFGYICAILMFAVTLIQSFCLQSYFQHCFVLGMCVRTTVMSSIYKKALTLSNLARKQYTIGETVNLMSVDSQKLMDATNYMQLVWSSVIQITLSIFFLWRELGPSILAGVGVMVLLIPVNGVLATKIRNIQVQNMKNKDKRLKIMNEILSGIKILKYFAWEPSFQEQVQGIRKKELKNLLRFGQLQSLLIFILQITPILVSVVTFSVYVLVDSANVLNAEKAFTSITLFNILRFPLSMLPMVTSSILQASVSVDRLERYLGGDDLDTSAIRRVSNFDKAVKFSEASFTWDPDLEATIQDVNLDIKPGQLVAVVGTVGSGKSSLVSAMLGEMENVHGHITIQGSTAYVPQQSWIQNGTIKDNILFGSEYNEKKYQQVLKACALLPDLEILPGGDMAEIGEKGINLSGGQKQRVSLARAAYQDADIYILDDPLSAVDAHVGKHIFNKVVGPNGLLAGKTRIFVTHGIHFLPQVDEIVVLGKGTILEKGSYRDLLDKKGVFARNWKTFMKHSGPEGEATVNNDSEAEDDDDGLIPTMEEIPEDAASLAMRRENSLRRTLSRSSRSSSRRGKSLKNSLKIKNVNVLKEKEKEVEGQKLIKKEFVETGKVKFSIYLKYLQAVGWWSILFIILFYGLNNVAFIGSNLWLSAWTSDSDNLNGTNNSSSHRDMRIGVFGALGLAQGICLLISTLWSIYACRNASKALHGQLLTNILRAPMRFFDTTPTGRIVNRFSGDISTVDDLLPQTLRSWMMCFFGIAGTLVMICMATPVFAIIIIPLSILYISVQVFYVATSRQLRRLDSVTKSPIYSHFSETVTGLPIIRAFEHQQRFLAWNEKQIDINQKCVFSWITSNRWLAIRLELVGNLVVFCSALLLVIYRKTLTGDVVGFVLSNALNITQTLNWLVRMTSEAETNIVAVERISEYINVENEAPWVTDKRPPADWPRHGEIQFNNYQVRYRPELDLVLKGITCNIKSGEKVGVVGRTGAGKSSLTNCLFRILESAGGQIIIDGIDVASIGLHDLRERLTIIPQDPILFSGSLRMNLDPFNKYSDEEVWRALELAHLRSFVSGLQLGLLSEVTEGGDNLSIGQRQLLCLGRAVLRKSKILVLDEATAAVDLETDSLIQTTIRKEFSQCTVITIAHRLHTIMDSDKIMVLDNGKIVEYGSPEELLSNRGSFYLMAKEAGIENVNHTEL
**Q.** For B1, which Km is on record?
**A.** 20 µM
